The values that follow are results of earlier work, collected in article PMC7248566.

The data set has as its target Fibrinogen beta (Fgβ) (Homo sapiens) (UniProt P02675).

Consider SdrG (from UniProt Q9KI13), for which the Kd was 350 nM.

In general, Kd refers to a measure of binding affinity in units of concentration.
